In patent US7183387 (Genentech, dated 2007):

T1: human FcγRIIA-R131 α subunit extracellular domain-6His-GST fusion (human, UniProt P12318 34-217)
T1 construct: also called FcγRIIA-Arg131; not shown: glutathione S-transferase (GST)
T1 sequence: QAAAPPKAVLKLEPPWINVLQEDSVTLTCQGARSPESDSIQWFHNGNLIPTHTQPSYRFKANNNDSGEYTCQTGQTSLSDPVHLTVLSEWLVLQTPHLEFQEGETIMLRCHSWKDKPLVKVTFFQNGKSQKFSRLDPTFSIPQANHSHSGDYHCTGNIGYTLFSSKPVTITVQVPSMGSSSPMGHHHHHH

T2: human FcγRIIB α subunit extracellular domain-6His-GST fusion (human, UniProt P31994 43-217)
T2 construct: not shown: glutathione S-transferase (GST)
T2 sequence: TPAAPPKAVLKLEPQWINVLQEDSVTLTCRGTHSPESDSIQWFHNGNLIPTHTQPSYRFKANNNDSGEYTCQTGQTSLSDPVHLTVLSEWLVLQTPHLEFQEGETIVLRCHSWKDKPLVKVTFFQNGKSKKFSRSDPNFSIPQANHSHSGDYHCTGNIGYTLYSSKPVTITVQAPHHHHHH


Assays:
Experiment in all cases: ELISA, IgG:IgE hexamers on receptor-GST
[1] = target: T1, human FcγRIIA-R131 α subunit …
[2] = target: T2, human FcγRIIB α subunit extracellular …
[3] = target: T3, human FcγRIIIA-F158 α subunit extracellular domain-6His-GST fusion (human, UniProt P08637 17-208)
T3 construct: also called FcγRIIIA-Phe158; not shown: glutathione S-transferase (GST)
T3 sequence (P08637 other isoform, or with tags, fused parts or gaps, form in doubt): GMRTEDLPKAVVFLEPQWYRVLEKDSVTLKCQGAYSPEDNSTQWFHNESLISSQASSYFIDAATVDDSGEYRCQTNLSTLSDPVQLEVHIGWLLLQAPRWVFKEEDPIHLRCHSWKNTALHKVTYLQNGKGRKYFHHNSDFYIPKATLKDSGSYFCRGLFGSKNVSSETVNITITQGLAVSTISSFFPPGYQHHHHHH

Row | Binder | ratio to native IgG1 [1] | ratio to native IgG1 [2] | ratio to native IgG1 [3]
1 | E27 IgG1 variant S298(317)L (antibody) heavy: not shown light: DIQLTQSPSSLSASVGDRVTITCRASKPVDGEGDSYLNWYQQKPGKAPKLLIYAASYLESGVPSRFSGSGSGTDFTLTISSLQPEDFATYYCQQSHEDPYTFGQGTKVEIKRTVAAPSVFIFPPSDEQLKSGTASVVCLLNNFYPREAKVQWKVDNALQSGNSQESVTEQDSKDSTYSLSSTLTLSKADYEKHKVYACEVTHQGLSSPVTKSFNRGEC | 1.14 | 1.42 | 0.34
2 | E27 IgG1 variant S298(317)N (antibody, also called IG2 72) heavy: not shown light: DIQLTQSPSSLSASVGDRVTITCRASKPVDGEGDSYLNWYQQKPGKAPKLLIYAASYLESGVPSRFSGSGSGTDFTLTISSLQPEDFATYYCQQSHEDPYTFGQGTKVEIKRTVAAPSVFIFPPSDEQLKSGTASVVCLLNNFYPREAKVQWKVDNALQSGNSQESVTEQDSKDSTYSLSSTLTLSKADYEKHKVYACEVTHQGLSSPVTKSFNRGEC | 0.05 | 0.08 | 0.06
3 | E27 IgG1 variant S298(317)T (antibody, also called IG2 71) heavy: not shown light: DIQLTQSPSSLSASVGDRVTITCRASKPVDGEGDSYLNWYQQKPGKAPKLLIYAASYLESGVPSRFSGSGSGTDFTLTISSLQPEDFATYYCQQSHEDPYTFGQGTKVEIKRTVAAPSVFIFPPSDEQLKSGTASVVCLLNNFYPREAKVQWKVDNALQSGNSQESVTEQDSKDSTYSLSSTLTLSKADYEKHKVYACEVTHQGLSSPVTKSFNRGEC | 0.29 | 0.27 | 0.73
4 | E27 IgG1 variant S298(317)V (antibody, also called IG2 218) heavy: not shown light: DIQLTQSPSSLSASVGDRVTITCRASKPVDGEGDSYLNWYQQKPGKAPKLLIYAASYLESGVPSRFSGSGSGTDFTLTISSLQPEDFATYYCQQSHEDPYTFGQGTKVEIKRTVAAPSVFIFPPSDEQLKSGTASVVCLLNNFYPREAKVQWKVDNALQSGNSQESVTEQDSKDSTYSLSSTLTLSKADYEKHKVYACEVTHQGLSSPVTKSFNRGEC | 0.11 | 0.17 | 0.33
5 | E27 IgG1 variant S324(343)E (antibody, also called IG2 216) heavy: not shown light: DIQLTQSPSSLSASVGDRVTITCRASKPVDGEGDSYLNWYQQKPGKAPKLLIYAASYLESGVPSRFSGSGSGTDFTLTISSLQPEDFATYYCQQSHEDPYTFGQGTKVEIKRTVAAPSVFIFPPSDEQLKSGTASVVCLLNNFYPREAKVQWKVDNALQSGNSQESVTEQDSKDSTYSLSSTLTLSKADYEKHKVYACEVTHQGLSSPVTKSFNRGEC | 0.82 | 0.73 | 0.81
6 | E27 IgG1 variant S324(343)K (antibody, also called IG2 215) heavy: not shown light: DIQLTQSPSSLSASVGDRVTITCRASKPVDGEGDSYLNWYQQKPGKAPKLLIYAASYLESGVPSRFSGSGSGTDFTLTISSLQPEDFATYYCQQSHEDPYTFGQGTKVEIKRTVAAPSVFIFPPSDEQLKSGTASVVCLLNNFYPREAKVQWKVDNALQSGNSQESVTEQDSKDSTYSLSSTLTLSKADYEKHKVYACEVTHQGLSSPVTKSFNRGEC | 0.66 | 0.37 | 0.77
7 | E27 IgG1 variant S324(343)N (antibody, also called IG2 213) heavy: not shown light: DIQLTQSPSSLSASVGDRVTITCRASKPVDGEGDSYLNWYQQKPGKAPKLLIYAASYLESGVPSRFSGSGSGTDFTLTISSLQPEDFATYYCQQSHEDPYTFGQGTKVEIKRTVAAPSVFIFPPSDEQLKSGTASVVCLLNNFYPREAKVQWKVDNALQSGNSQESVTEQDSKDSTYSLSSTLTLSKADYEKHKVYACEVTHQGLSSPVTKSFNRGEC | 1.15 | 1.09 | 0.97
8 | E27 IgG1 variant S324(343)Q (antibody, also called IG2 214) heavy: not shown light: DIQLTQSPSSLSASVGDRVTITCRASKPVDGEGDSYLNWYQQKPGKAPKLLIYAASYLESGVPSRFSGSGSGTDFTLTISSLQPEDFATYYCQQSHEDPYTFGQGTKVEIKRTVAAPSVFIFPPSDEQLKSGTASVVCLLNNFYPREAKVQWKVDNALQSGNSQESVTEQDSKDSTYSLSSTLTLSKADYEKHKVYACEVTHQGLSSPVTKSFNRGEC | 0.82 | 0.83 | 0.78
9 | E27 IgG1 variant T256(269)G (antibody, also called IG2 176) heavy: not shown light: DIQLTQSPSSLSASVGDRVTITCRASKPVDGEGDSYLNWYQQKPGKAPKLLIYAASYLESGVPSRFSGSGSGTDFTLTISSLQPEDFATYYCQQSHEDPYTFGQGTKVEIKRTVAAPSVFIFPPSDEQLKSGTASVVCLLNNFYPREAKVQWKVDNALQSGNSQESVTEQDSKDSTYSLSSTLTLSKADYEKHKVYACEVTHQGLSSPVTKSFNRGEC | 1.1 | 1.06 | 0.96
10 | E27 IgG1 variant T256(269)N (antibody) heavy: not shown light: DIQLTQSPSSLSASVGDRVTITCRASKPVDGEGDSYLNWYQQKPGKAPKLLIYAASYLESGVPSRFSGSGSGTDFTLTISSLQPEDFATYYCQQSHEDPYTFGQGTKVEIKRTVAAPSVFIFPPSDEQLKSGTASVVCLLNNFYPREAKVQWKVDNALQSGNSQESVTEQDSKDSTYSLSSTLTLSKADYEKHKVYACEVTHQGLSSPVTKSFNRGEC | 1.03 | 0.89 | 1.13
11 | E27 IgG1 variant T335(354)E (antibody, also called IG2 194) heavy: not shown light: DIQLTQSPSSLSASVGDRVTITCRASKPVDGEGDSYLNWYQQKPGKAPKLLIYAASYLESGVPSRFSGSGSGTDFTLTISSLQPEDFATYYCQQSHEDPYTFGQGTKVEIKRTVAAPSVFIFPPSDEQLKSGTASVVCLLNNFYPREAKVQWKVDNALQSGNSQESVTEQDSKDSTYSLSSTLTLSKADYEKHKVYACEVTHQGLSSPVTKSFNRGEC | 1.24 | 1.3 | 1.19
12 | E27 IgG1 variant T335(354)K (antibody, also called IG2 195) heavy: not shown light: DIQLTQSPSSLSASVGDRVTITCRASKPVDGEGDSYLNWYQQKPGKAPKLLIYAASYLESGVPSRFSGSGSGTDFTLTISSLQPEDFATYYCQQSHEDPYTFGQGTKVEIKRTVAAPSVFIFPPSDEQLKSGTASVVCLLNNFYPREAKVQWKVDNALQSGNSQESVTEQDSKDSTYSLSSTLTLSKADYEKHKVYACEVTHQGLSSPVTKSFNRGEC | 1.19 | 1.14 | 1.3
13 | E27 IgG1 variant T335(354)Q (antibody, also called IG2 171) heavy: not shown light: DIQLTQSPSSLSASVGDRVTITCRASKPVDGEGDSYLNWYQQKPGKAPKLLIYAASYLESGVPSRFSGSGSGTDFTLTISSLQPEDFATYYCQQSHEDPYTFGQGTKVEIKRTVAAPSVFIFPPSDEQLKSGTASVVCLLNNFYPREAKVQWKVDNALQSGNSQESVTEQDSKDSTYSLSSTLTLSKADYEKHKVYACEVTHQGLSSPVTKSFNRGEC | 0.86 | 0.79 | 0.84
14 | E27 IgG1 variant V303(322)L (antibody, also called IG2 150) heavy: not shown light: DIQLTQSPSSLSASVGDRVTITCRASKPVDGEGDSYLNWYQQKPGKAPKLLIYAASYLESGVPSRFSGSGSGTDFTLTISSLQPEDFATYYCQQSHEDPYTFGQGTKVEIKRTVAAPSVFIFPPSDEQLKSGTASVVCLLNNFYPREAKVQWKVDNALQSGNSQESVTEQDSKDSTYSLSSTLTLSKADYEKHKVYACEVTHQGLSSPVTKSFNRGEC | 0.89 | 0.73 | 0.76
